Test results: US6492117, “Zinc finger polypeptides capable of binding DNA quadruplexes” (Gendaq Limited)

Target: glutathione-S-transferase (UniProt P08515 P08515:1-218)
Test: EMSA; GST alone control
Conditions: tags: GST (pGEX-3X, Amersham-Pharmacia); label: 5'-32P; G4, antiparallel intramolecular
Procedure: Binding reactions are performed in a final volume of 10 µl, using 10 fmol of labelled oligonucleotide and various amounts of purified Gq1* in binding buffer: 20 mM Tris-HCl pH 7.5, 1 mM EDTA, 1 mM DTT, 6% glycerol, 100 µg/ml BSA, 1 µg/ml calf thymus DNA, 50 µM ZnCl_2 and KCl to 150 mM. Binding reactions are carried out at room temperature for 1 hour. The samples are loaded on a 8% polyacrylamide (acrylamide:bisacrylamide=33:1) non-denaturing gel. The buffer in the gel and for electrophoresis is 0.5 X TB buffer (Sambrook, J., Fritsch, E. F., & Maniatis, T. (1989) in Molecular Cloning, A Laboratory Manual, Cold Spring Harbor Laboratory Press, Cold Spring Harbor.). Electrophoresis is performed at 15 V/cm, for 2 hours, at 4° C. […] The bands are quantified using Imagequant software. The fraction of DNA that is bound and free is determined after normalization by summing the total number of counts in each lane (Senear D F, Brenowitz M (1991) J Biol Chem Jul 25;266(21):13661–71). To minimise any error due to perturbation of the equilibrium under electrophoretic conditions, the fraction of free DNA is measured at various protein concentrations rather than measuring the amount of complex formed (Cann J R (1989) J Biol Chem Oct 15;264(29):17032–40; Garner M M, Revzin A (1981) Nucleic Acids Res Jul 10;9(13):3047–60). […]

Sequence of glutathione-S-transferase (P08515 whole entry, one chain of several): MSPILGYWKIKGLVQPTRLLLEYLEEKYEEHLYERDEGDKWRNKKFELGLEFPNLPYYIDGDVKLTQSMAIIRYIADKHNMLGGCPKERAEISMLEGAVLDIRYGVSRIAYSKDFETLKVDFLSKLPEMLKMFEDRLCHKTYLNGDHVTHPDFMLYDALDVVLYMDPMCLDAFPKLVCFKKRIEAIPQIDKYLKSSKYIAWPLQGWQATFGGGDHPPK

B1: Htelo (structured_DNA)
DNA: GGTTAGGGTTAGGGTTAGGGTTAGGGTTAG
- binding result: no binding
